For the assay, the target named is LGF2. The assay is described as follows: two-hybrid; BacterioMatch II bacterial two-hybrid in E. coli reporter cells; bait in pBT as λcI fusion, prey in pTRG as RNAPα fusion; 30 ng each of bait and prey vector; HIS3 reporter, cfu on selective screening medium with 3-AT; three repeats, mean ± 1 SD.

Gal11^P (domain or fragment) registered a cfu on selective screening medium (with 3-AT) of 1000 cfu.

Source of the values: article PMC4315436.
